This is an account of results in patent publication US20210395319A1 (OLIGOMERIX, published 2021).

The data set concerns the molecule itself. Put plainly: self-association: overnight incubation at 37 °C in pH neutral buffer, SDS-PAGE on a 4-20% gradient gel. The procedure: Protein preparations of the N-terminal (21.5 kDa) and C-terminal (18.5 kDa) were incubated at 4 μM concentration in pH neutral buffer and incubated overnight at 37° C.

B1: N-terminal portion of tau protein (amino acids 1-184) (other, UniProt P10636-8 1-184, looked up)
chain: MAEPRQEFEVMEDHAGTYGLGDRKDQGGYTMHQDQEGDTDAGLKESPLQTPTEDGSEEPGSETSDAKSTPTAEDVTAPLVDEGAPGKQAAAQPHTEIPEGTTAEEAGIGDTPSLEDEAAGHVTQARMVSKSKDGTGSDDKKAKGADGKTKIATPRGAAPPGQKGQANATRIPAKTPPAPKTPPS
notes: range 1-184; Printed mass 21.5 kDa, charge approximately -7.2; also called tau fragment (21.5 KD) that encompasses the N-terminus; N-terminal (21.5 kDa)
B1: the binding result was “no binding (tested: 4 µM)”.
